The source of these data is US20230416305A1 (published 2023).

Bridges are numbered along the chain shown (N, C = ends). Where no end group is shown, it is not given here. [ ]: non-standard residue; d: D form. S5 = C=CCCC[C@](C)(N)C(=O)O

The target in assay [1] is T1, ANK domain of Notch1 intracellular segment N1ICD (UniProt P46531 1872-2126).
T1 chain: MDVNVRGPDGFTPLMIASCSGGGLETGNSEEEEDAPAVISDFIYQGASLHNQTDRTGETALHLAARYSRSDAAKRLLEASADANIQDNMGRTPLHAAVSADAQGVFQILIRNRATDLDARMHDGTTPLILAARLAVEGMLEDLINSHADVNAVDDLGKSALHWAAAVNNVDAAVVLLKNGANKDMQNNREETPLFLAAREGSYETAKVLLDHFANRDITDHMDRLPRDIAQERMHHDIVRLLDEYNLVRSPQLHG
Description: SPR. A general note: SPR reads the build-up and loss of mass on a sensor chip optically.

The target in assay [2] is T1, ANK domain of Notch1 intracellular …. Description: SPR.
The target in assay [3] is T2, ANK1 (α-helical region of the ANK domain of N1ICD) (UniProt P46531 1927-1956).
T2 chain: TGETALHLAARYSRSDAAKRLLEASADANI
As to the kind of experiment: SPR.

Assay [4] has as its target T1, ANK domain of Notch1 intracellular …. As to the kind of experiment: SPR; FIG. 1D.
The target is the same in assay [5]. Description: SPR; FIG. 1C.
The target in assay [6] is ANK2. Description: SPR.
The target in assay [7] is ANK3. As to the kind of experiment: SPR.
Assay [8] deals with ANK6. As to the kind of experiment: SPR.
Assay [9] deals with ANK4. As to the kind of experiment: SPR.
Assay [10] addresses ANK5. Description: SPR.

B1: mAH2-1 (peptide)
chain: AAKRIFYQLLSKQL
The Kd is the free concentration of one partner at which half of the binding sites on the other are occupied at equilibrium, for simple one-to-one binding. Molecule B1 displayed a Kd in [1] of 0.0961 µM. In other words, the double-digit nanomolar range.

B2: mAH2-6 (peptide)
chain: YAKRIAYQLLSKQL
Molecule B2 had a Kd in assay [1] of 0.0636 µM. Compared with the last molecule, the Kd is about 1.5-fold lower.

B3: mAH2-11 (peptide)
chain: YAKRIFYQLLAKQL
On to B3, for which the Kd in [1] amounted to 0.0839 µM. This Kd and that of the molecule before are within 1.5-fold of each other.

B4: SAH-mAH2-1 (peptide)
peptide: [S5]AKR[S5]FYQLLSKQL
modifications: staple 1-5
Turning to B4, the affinity in assay [1], expressed as Kd, was 0.134 µM.

B5: SAH-mAH2-5 (stapled α-helix-modified α-helix 2-5) (peptide)
peptide: YAKRI[S5]YQLLSK[S5]L
modifications: staple 6-13
B5: the Kd in assay [1] is 0.000898 µM.

B6: mAH2-9 (peptide)
chain: YAKRIFYQALSKQL
For B6, in assay [1], the affinity, expressed as Kd, was 0.286 µM.

B7: SAH-mAH2-4 (peptide)
peptide: [S5]AKRIFY[S5]LLSKQL
modifications: staple 1-8
B7: the Kd in assay [1] came out at 0.0258 µM.

B8: mAH2-3 (peptide)
chain: YAARIFYQLLSKQL
The molecule B8 displayed a Kd in assay [1] of 0.0511 µM.

B9: mAH2-10 (peptide)
chain: YAKRIFYQLASKQL
B9 yielded a Kd in assay [1] of 0.0555 µM.

B10: mAH2-13 (peptide)
chain: YAKRIFYQLLSKAL
In turn, B10 returned a Kd in assay [1] of 0.099 µM.

B11: mAH2-14 (peptide)
chain: YAKRIFYQLLSKQA
In turn, B11 displayed a Kd in assay [1] of 5.98 µM.

B12: mAH2-12 (peptide)
chain: YAKRIFYQLLSAQL
B12 gave a Kd in assay [1] of 0.0782 µM. Against the preceding molecule, the Kd is about 76-fold lower.

B13: mAH2-5 (peptide)
chain: YAKRAFYQLLSKQL
In assay [1], B13 showed a Kd of 0.0575 µM.

B14: AH2 (α-helix 2 of N1DARP) (peptide)
peptide: YAKRIFYQLLSKEL
As to B14, the Kd in assay [2] came to 0.0604 µM; in assay [3] it was 4.34 µM; in [4] it was 0.0604 µM.

B15: AH1 (peptide)
chain: LLEKKRQY
B15: in [2], the Kd worked out at 0.213 µM.

B16: mAH2-8 (peptide)
chain: YAKRIFYALLSKQL
In assay [1], B16 showed a Kd of 0.0874 µM.

B17: modified AH2 (mAH2), modified α-helice 2 (peptide)
peptide: YAKRIFYQLLSKQL
B17: the results for the Kd in assay [5] and in [4] were 0.0604 µM and 0.0452 µM, respectively.

B18: AH2 (peptide)
peptide: YAKRIFYQLLSKEL
As to B18, the Kd stood at 23.3 µM in assay [6]; 85.8 µM in assay [7]; 64.2 µM in assay [8]; 66.1 µM in assay [9]; 42.8 µM in [10].

B19: mAH2-4 (peptide)
chain: YAKAIFYQLLSKQL
With B19, the Kd in assay [1] is 0.0745 µM.

B20: SAH-mAH2-2 (peptide)
peptide: Y[S5]KRI[S5]YQLLSKQL
modifications: staple 2-6
On to B20, for which the Kd in assay [1] came to 0.0977 µM.
